The target in test [1] is CTD released by factor Xa from full-length proRgpB662iXa produced in P. gingivalis (Porphyromonas gingivalis W83) (UniProt P95493). Description: cross-linking; glutaraldehyde (0.01-0.1%) in PBS, 5 min at 37 °C, stopped with 100 mM Tris; protein at 1, 0.5 and 0.1 mg/ml; SDS-PAGE and Western blot.
Test [2] addresses recombinant C-terminal domain (CTD) of gingipain B (RgpB) (Porphyromonas gingivalis W83) (UniProt P95493). Description: cross-linking; data not shown: rCTD and r664i6H at 0.1 mg/ml exposed to 0.1, 0.05 and 0.01% glutaraldehyde.
Test [3] has the same target. Description: SEC; Superdex 75 10/300 GL, 50 mM Tris, 150 mM NaCl, 2.5 mM CaCl2, 0.02% NaN3 pH 7.5; fractions analysed by Western blot with anti-rCTD antibodies.
Test [4] has the same target. Description: cross-linking; glutaraldehyde (0.01-0.1%) in PBS, 5 min at 37 °C, stopped with 100 mM Tris; protein at 1, 0.5 and 0.1 mg/ml; SDS-PAGE and Western blot.

Consider “CTD released by factor Xa from full-length proRgpB662iXa produced in P. gingivalis (from UniProt P95493 663-736) (domain or fragment)”, for which the stoichiometry N in test [1] came to 2.
“recombinant C-terminal domain (CTD) of gingipain B (RgpB) (from UniProt P95493 664-736) (domain or fragment)”: the stoichiometry N in test [2], in test [3] and in test [4] was 2 in each case.

Source of the values: publication PMC4804311.
